The values that follow come from US20110160439A1 (H LUNDBECK A S, published 2011).

Experiment [1] has as its target T1, Soluble Sortilin (sSortilin), luminal domain of human Sortilin fused C-terminally to His6 (human, UniProt Q99523 78-755).
T1 construct: Expressed in CHO-K1 cells; The propeptide is removed in the mature receptor; also called wt sSortilin; wtSortilin
T1 sequence: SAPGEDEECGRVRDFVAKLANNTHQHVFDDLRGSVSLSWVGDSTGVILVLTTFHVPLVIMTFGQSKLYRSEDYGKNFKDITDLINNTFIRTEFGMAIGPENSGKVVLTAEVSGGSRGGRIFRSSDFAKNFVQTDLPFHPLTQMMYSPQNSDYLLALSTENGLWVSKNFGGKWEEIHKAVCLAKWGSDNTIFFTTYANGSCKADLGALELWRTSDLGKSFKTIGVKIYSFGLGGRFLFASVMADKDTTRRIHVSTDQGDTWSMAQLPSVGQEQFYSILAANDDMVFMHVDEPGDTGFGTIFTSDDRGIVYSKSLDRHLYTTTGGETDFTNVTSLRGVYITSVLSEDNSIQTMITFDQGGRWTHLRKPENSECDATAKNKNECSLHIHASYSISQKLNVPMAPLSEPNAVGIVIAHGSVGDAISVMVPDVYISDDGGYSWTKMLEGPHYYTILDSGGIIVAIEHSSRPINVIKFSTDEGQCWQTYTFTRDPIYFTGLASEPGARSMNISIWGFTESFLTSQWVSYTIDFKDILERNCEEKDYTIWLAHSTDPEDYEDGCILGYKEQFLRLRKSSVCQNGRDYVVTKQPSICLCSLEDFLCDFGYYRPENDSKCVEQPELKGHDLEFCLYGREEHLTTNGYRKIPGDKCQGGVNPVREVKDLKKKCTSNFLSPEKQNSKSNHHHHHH
The experiment can be described thus: SPR (BIAcore 3000), sSortilin immobilised on CM5 chip. On the procedure: All measurements were performed on a BIAcore 3000 instrument (Biacore Sweden) maintained at 20° C. A continuous flow of buffer F (10 mM HEPES pH=7.4, 150 mM (NH₄)₂SO₄, 1.5 mM CaCl₂, 1.5 mM EGTA and 0.005% Tween-20) was passed over the CM5 chip sensor surface at 5 μl/min.

In experiment [2] the target is T1, Soluble Sortilin (sSortilin), luminal …. As to the kind of experiment: SPR, wt sSortilin immobilised. On the procedure:
(§1) The receptors were immobilized at similar concentrations (0.06 pM/mm²) and binding was analyzed by SPR.
(§2) Surface plasmon resonance (SPR) measurements were performed on a BIAcore 2000 instrument (Biacore Sweden) equipped with CM5 sensor chips maintained at 20° C. A continuous flow of HBS buffer (10 mM HEPES pH 7.4, 3.4 mM EDTA, 150 mM NaCl, 0.005% surfactant P20) passing over the sensor surface was maintained at 5 μl/min. The carboxylated dextran matrix of the sensor chip flow cells 1-3 was activated by the injection of a solution containing 0.2 M N-ethyl-N-(3 dimethylamino-propyl)carbodiimide and 0.05MN-hydroxysuccimide in water. A sortilin solution (320 μl, 5 μg/ml in 10 mM sodium acetate pH 4.0) was then injected over flow cells 1 and 2 at a flow rate of 15 μl/min. Remaining binding sites in all three flow cells were blocked by injection (5 μl/min) of 70 μl of 1 M ethanolamine pH 8.5. […] Screening of the samples was performed by injecting aliquots of 50 μl, at concentrations of 0.1-8 μM, through all flow cells with a flow rate of 5 μl/min. Unless otherwise stated, the samples were dissolved in 10 mM HEPES pH 7.4, 150 mM NaCl, 1.5 mM CaCl2, 1 mM EGTA, 0.005% surfactant P20. Sample buffer was also used as running buffer. […]
Background: In SPR one partner is held on a chip, and binding of the other changes the refractive index at the surface.

A further experiment addresses T2, sSortilin S316E mutant (human, UniProt Q99523 78-755).
T2 sequence: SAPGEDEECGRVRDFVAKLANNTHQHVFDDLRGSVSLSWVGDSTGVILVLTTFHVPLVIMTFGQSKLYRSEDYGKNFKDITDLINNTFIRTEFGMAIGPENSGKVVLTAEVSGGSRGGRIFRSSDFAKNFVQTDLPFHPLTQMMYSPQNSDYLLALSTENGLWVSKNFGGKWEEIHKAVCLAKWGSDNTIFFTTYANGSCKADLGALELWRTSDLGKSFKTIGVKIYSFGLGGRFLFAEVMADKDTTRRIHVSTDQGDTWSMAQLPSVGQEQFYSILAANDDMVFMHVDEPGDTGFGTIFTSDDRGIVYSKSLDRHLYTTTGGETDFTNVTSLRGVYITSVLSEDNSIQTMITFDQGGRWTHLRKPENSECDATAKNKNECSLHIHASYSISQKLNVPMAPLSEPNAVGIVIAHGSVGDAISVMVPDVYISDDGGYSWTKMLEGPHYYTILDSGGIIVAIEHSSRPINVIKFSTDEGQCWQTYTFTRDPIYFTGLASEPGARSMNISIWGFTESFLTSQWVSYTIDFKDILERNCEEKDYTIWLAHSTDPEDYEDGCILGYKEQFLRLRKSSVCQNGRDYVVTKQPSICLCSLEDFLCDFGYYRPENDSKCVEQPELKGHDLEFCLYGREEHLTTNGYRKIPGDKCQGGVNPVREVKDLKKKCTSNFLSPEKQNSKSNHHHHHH
As to the kind of experiment: SPR, mutant sSortilin immobilised. On the procedure:
as §1, §2

Where no end group is shown, it is not given here.

B1: Propeptide of Nerve Growth Factor (NGFpro), E. coli-expressed, His6 tag removed by TEV (ligand)
chain: EPHSESNVPAGHTIPQVHWTKLQHSLDTALRRARSAPAAAIAARVAGQTRNITVDPRLFKKRRLRSPRVLFSTQPPREAADTQDLDFEVGGAAPFNRTHRSKR
notes: also called pro-domain of Nerve Growth Factor; NGF prodomain
In the case of B1, the Kd in experiment [1] was roughly 10 nM.

B2: Mature BDNF (ligand)
chain: HSDPARRGELSVCDSISEWVTAADKKTAVDMSGGTVTVLEKVPVSKGQLKQYFYETKCNPMGYTKEGCRGIDKRHWNSQCRTTQSYVRALTMDSKKRIGWRFIRIDTSCVCTLTIKRGR
In the case of B2, the binding result (in experiment [2]; with sSortilin S316E mutant) was “binds” each time.

B3: GST-tagged Sortilin propeptide (other)
chain: QDRLDAPPPPAAPLPRWSGPIGVSWGLRAAAAGGAFPRGGRWRR
modifications: also: GST tag, order and linker not given here
notes: also called GST-Sort-pro; (GST)Sort-pro; not shown: glutathione S-transferase (GST) tag
Consider B3, for which, in the experiment with sSortilin S316E mutant, the binding result was “no binding”.

A word on the Kd: it is a measure of binding affinity in units of concentration. A higher Kd goes with weaker binding.
